The target in experiment [1] is T1, MAG + sNogoR344-Fc (Rattus norvegicus, UniProt Q99M75, A303T/C287S/C43R/E284G/T53A).
T1 construct: amino acid residues 26-344 of rat Nogo receptor-1; made in house; CHO (DG44) is described only for sNogoR310-Fc
T1 sequence (Q99M75 26-344 C43R/T53A/E284G/C287S/A303T): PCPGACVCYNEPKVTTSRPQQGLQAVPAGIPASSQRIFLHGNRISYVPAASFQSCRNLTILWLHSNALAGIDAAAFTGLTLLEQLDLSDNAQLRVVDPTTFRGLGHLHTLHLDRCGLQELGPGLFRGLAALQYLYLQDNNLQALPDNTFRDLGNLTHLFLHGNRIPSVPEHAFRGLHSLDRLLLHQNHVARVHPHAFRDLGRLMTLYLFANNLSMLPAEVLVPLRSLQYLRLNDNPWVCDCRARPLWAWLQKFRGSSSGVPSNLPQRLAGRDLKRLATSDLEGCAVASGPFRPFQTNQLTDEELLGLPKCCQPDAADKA
As to the kind of experiment: ELISA: inhibition of MAG binding to sNogoR344-Fc. Here is the method: (§1) 0.5 μg of a soluble Nogo receptor-1 fusion protein comprising amino acid residues 26-344 of rat Nogo receptor-1 and the hinge and Fc region of the rat IgG1 molecule (sNogoR344-Fc) produced as described below was immobilized on […] of protein-A- or wheatgerm agglutinin-conjugated SPA beads (Amersham Pharmacia Biotech) for 2 hours at 25° C. SPA beads coupled with Fc-sNogoR-1, anti-Nogo receptor-1 mAb and 1 μl ^125I-Nogo66 (Amersham, 2000 Ci/mmol, 1 nM) in […] of the HEPES-buffered incubation medium (10 mM HEPES, pH 7.4, 0.1% bovine serum albumin, 0.1% ovalbumin, 2 mM MgCl2, 2 mM CaCl2 and protease inhibitors) was added to each sample well. After 16 hours, radioactivity was measured in quadruplicate samples using a TopCount® (Packard). IC50 values were calculated from a curve-fit analysis (FIG. 3) (PRISM, GraphPad Software, NJ). In some experiments, we also used AP-ligand conjugates (e.g. AP-Nogo66) and detected binding by monitoring alkaline phosphatase activity. We also assayed the ability of the mAbs to block binding of the ligands MAG-Fc and AP-OM-gp to Nogo receptor-1.
(§2) Monoclonal antibodies 7E11, 5B10, 1H2, 3G5 and 2F7 all inhibited binding of Nogo66, MAG and OM-gp to sNogoR344-Fc. The calculated IC50 for Nogo66 for 7E11 and 1H2 were 400 nM and 60 nM, respectively. The data from ELISAs monitoring mAb-mediated inhibition of binding of the three ligands to Nogo receptor-1 are summarized in Table 6.
(§3) The percent displacement is shown at 30 nM antibody and the EC50 for certain mAbs determined from curve-fit analysis as described. “-” indicates no detectable activity and “ND” indicates not determined.
(§4) We also performed ELISA binding assays using the Fab-phage 141)5.
In general terms: An ELISA detects its analyte on a solid surface through an enzyme-linked reagent.

For experiment [2], the target named is T2, Nogo66 + sNogoR344-Fc (Rattus norvegicus, UniProt Q99M75, A303T/C287S/C43R/E284G/T53A).
T2 construct: amino acid residues 26-344 of rat Nogo receptor-1; made in house
T2 sequence (Q99M75 26-344 C43R/T53A/E284G/C287S/A303T): T1 sequence (Q99M75 26-344 C43R/T53A/E284G/C287S/A303T)
In words: ELISA: inhibition of Nogo66 binding to sNogoR344-Fc. Here is the method:
as §1, §2, §3, §4

B1: 7E11: murine monoclonal anti-Nogo receptor-1 antibody, immunogen rat Nogo receptor-1 residues 110-125, IgG1 kappa, ATCC PTA-4587 (antibody, V domains shown)
VH: VQLQESGAELVMPGASVKMSCKASGYTFTDYWMHWVKQRPGQGLEWIGAIDPSDSYSSYNQNFKGKATLTVDGSSSTAYMQLSSLTSEDSAVYYCARRITEAGAWFAYWGQGTTVT
VL: MKLPVRLLVLMFWIPASSSDVVMTQTPLSLPVSLGDQASISCRSSQSLVHSNGNTYLHWYLQKPGQSPKLLIYKVSNRFSGVPDRFSGSGSGTDFTLKISRVDAEDLGVYFCSQSTHVPFTFGGGTKLEIKRADAAPTVSISHH
modifications: 7E11 heavy chain; 7E11 light chain
notes: murine monoclonal anti-Nogo receptor-1 antibody, immunogen rat Nogo receptor-1 residues 110-125, IgG1 kappa, ATCC PTA-4587
With B1, in experiment [1], the “inhibition of binding of MAG to sNogoR344-Fc” value was “inhibited”. The “MAG + sNogoR344-Fc: percent displacement” value in experiment [1] (30 nM antibody) is 30 nM (60%). Moreover, the EC50 (usually the concentration at which the effect is half-maximal) in experiment [1] (curve-fit analysis) turned out to be 0.5 µM; in experiment [2] (curve-fit analysis), 1.7 µM. For the same molecule, in experiment [2], the “inhibition of binding of Nogo66 to sNogoR344-Fc” value is “inhibited”.

Source of the values: patent US9228015B2, “Nogo receptor antagonists and methods of increasing neurite outgrowth” (Biogen Idec MA Inc., priority 2006, dated 2016).
